Paper PMC9960219, “Structural and DNA end resection study of the bacterial NurA-HerA complex” (BMC Biology, 2023)

How the values were obtained:
[1] = target: Deinococcus radiodurans HerA (Deinococcus radiodurans)
[2] = target: HerA with point mutations D78A, E80A, and D81A (Deinococcus radiodurans)
[3] = target: Deinococcus radiodurans NurA (Deinococcus radiodurans); assay: cryo-EM structure; purified drNurA-HerA complex, low-resolution (~9 Å) map, 200 kV, 3D refinement with C2 symmetry; drHerA crystal structure and an AlphaFold2 model of drNurA fitted and refined into the map
drHerA = target: T1, drHerA (Deinococcus radiodurans, UniProt Q9RW32); assay: X-ray crystal structure, […] Å; format: binding; conditions: Mg2+; crystals set up with ADP, NaF and AlCl3, only ADP seen; one ADP per protomer
T1 construct: gene DR_0837; full length, residues 1-618, N-terminal 6xHis tag (pET28a), expressed in E. coli Rosetta (DE3); homohexamer; ADP site between two protomers
T1 sequence (Q9RW32 1-618): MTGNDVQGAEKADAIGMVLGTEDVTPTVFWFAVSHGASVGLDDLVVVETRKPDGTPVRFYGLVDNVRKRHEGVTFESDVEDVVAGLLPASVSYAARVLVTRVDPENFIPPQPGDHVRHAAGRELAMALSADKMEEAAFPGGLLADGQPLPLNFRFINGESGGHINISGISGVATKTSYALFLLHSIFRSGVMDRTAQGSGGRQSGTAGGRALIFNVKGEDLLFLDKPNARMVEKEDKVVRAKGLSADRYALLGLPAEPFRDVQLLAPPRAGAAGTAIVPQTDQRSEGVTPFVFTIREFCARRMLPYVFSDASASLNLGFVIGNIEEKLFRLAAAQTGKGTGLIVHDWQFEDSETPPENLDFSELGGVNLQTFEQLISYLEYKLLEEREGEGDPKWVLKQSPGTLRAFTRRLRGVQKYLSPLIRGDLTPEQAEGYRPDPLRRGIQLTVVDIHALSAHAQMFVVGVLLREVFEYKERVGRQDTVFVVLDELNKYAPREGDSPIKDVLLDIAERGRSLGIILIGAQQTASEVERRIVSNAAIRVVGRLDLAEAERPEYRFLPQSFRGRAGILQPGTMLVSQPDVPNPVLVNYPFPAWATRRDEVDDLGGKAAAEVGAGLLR

[4] = target: Deinococcus radiodurans HerA (Deinococcus radiodurans); assay: crystal structure; drHerA without any ligand, space group P3(1)21, 3.0 Å; sitting drop at 289 K, 0.1 M HEPES (pH 7.5), 1.3 M NaAc
[5] = target: Deinococcus radiodurans HerA (Deinococcus radiodurans); assay: cryo-EM structure; 2D class averages (top views) of purified drHerA alone, with ADP, with ADPNP or with 46-bp dsDNA; 200 kV Tecnai F20
[6] = target: Deinococcus radiodurans HerA (Deinococcus radiodurans); assay: crystal structure; drHerA with ADP bound (set up with ADP•AlF3, MgAc), space group P2(1)2(1)2(1), 3.4 Å; 0.2 M MgCl2, 0.1 M HEPES (pH 7.8), 14% PEG 3350
[7] = target: Deinococcus radiodurans HerA (Deinococcus radiodurans); assay: cryo-EM structure; purified drNurA-HerA complex, low-resolution (~9 Å) map, 200 kV, 3D refinement with C2 symmetry; drHerA crystal structure and an AlphaFold2 model of drNurA fitted and refined into the map

Deinococcus radiodurans NurA (enzyme) gave an ATPase activity of drHerA with drNurA, Mn2+, ds DNA (ATPase mol/protein/min) [1] of 4.18, an ATPase activity of drHerA with drNurA, Mn2+, no DNA (ATPase mol/protein/min) [1] of 0.42 and an ATPase activity of drHerA with drNurA, Mn2+, ss DNA (ATPase mol/protein/min) [1] of 28.6. The ATPase activity of HerA^m with drNurA, Mn2+, ds DNA (ATPase mol/protein/min) [2] was 0.38, the ATPase activity of HerA^m with drNurA, Mn2+, no DNA (ATPase mol/protein/min) [2] was under 0.01 and the ATPase activity of HerA^m with drNurA, Mn2+, ss DNA (ATPase mol/protein/min) [2] was 6.01. The stoichiometry N [3] was 2.
In the case of Nc1ncnc2c1ncn2[C@@H]1O[C@H](COP(=O)(O)OP(=O)(O)O)[C@@H](O)[C@H]1O [ADP], the “X-ray crystal structure, 3.4 Å” value (drHerA) is reported as “each protomer is bound to one ADP molecule”.
Molecule Deinococcus radiodurans HerA (enzyme) has a stoichiometry N [4] of 6, a stoichiometry N [5] of 6 and a stoichiometry N [6] of 6. For the same molecule, the stoichiometry N [7] was 6.
